Reference: paper PMC10755861, “Structural analysis and functional evaluation of the disordered ß–hexosyltransferase region from Hamamotoa (Sporobolomyces) singularis” (Frontiers in Bioengineering and Biotechnology, 2023)

Tests used:
[1] = target: the molecule itself; experiment: SAXS; rBHT(23–594)-HIS in solution at 1 mg/mL and 4 mg/mL; molecular mass by the method of Rambo and Tainer
[2] = target: the molecule itself; experiment: SEC; purified variants; single peak, retention time 12.5 min, calculated Mw 150 kDa; data not shown

B1: rBHT(23–594)-HIS, recombinant ß-hexosyltransferase from Hamamotoa (Sporobolomyces) singularis, residues 23–594 (enzyme, UniProt Q564N5 23-594, looked up)
chain: VTYPGAIPLSLTSNYETPSPTAIPLEPTPTATGTAELDALWNLVEAQYPVQTAAVTTLVTVPDDYKFEADPPSYALAGYETSEIAGLKFPKGFKFGVAGAAIQVEGAAKAEGRGPSTWDYLCHHYASTQCNNYDPDITTNHYYLYPLDFARLQHLGINTYSFSISWTRIYPLGAGYVNEAGLAHYDAVIHSAKKYGLEPVGTVFHWDTPLSLMLKYGAWQDTGDQIVKDFVTYATTVFKRYGNEVKTWFTFNEPRVFCSQNSGLPYNLTYPEGINSTSAVFRCTYNVLKAHGHAVKVYRDLVASGTIAAGEIGFKSDDNYPIPARPGNADDEESAKRHEAFRIGIFAQPVYGNGDYPDVVKETVGDMLPALTDEDKGYIKGSGDIFAIDGYRTDISHAALNGIANCIRNQSDPNWPVCEEGSDPFAHVYPSGFAIGQSADPLSSWLVNSAPFIRDQLKFLTQTYPAKGGIYFSEFGWAEDAEYDRQLLYQITWDGLRTQYLTDYLSQLLLAVHKDGINLRGALTWSFVDNWEWGLGMQQKFGFQFVNQSDPDLTRTFKLSAHAYAQFGRNHL
modifications: N-glycosylation sites N289, N297, N431, N569 (NAG in the crystal structure); phosphorylation sites found in the crystal structure: T56, T74, T79
notes: Expressed behind the S. cerevisiae alpha factor pre-pro leader (MFα) of pPIC9; the forward primer encodes KR-EAEA before residue 23, so some leader residues (EAEA) may be left on the N-terminus after processing (surmise); Residues 23-53 lack electron density in PDB 7L74; also called rBHT(23–594)-6XHIS; BglA; source: K. phaffii GS115, secreted into the culture medium, purified (HISTrap HP Nickel …)
[1]
  stoichiometry N: 2

B2: rBHT(54–594)-HIS, recombinant ß-hexosyltransferase from Hamamotoa (Sporobolomyces) singularis, residues 54–594 (enzyme, UniProt Q564N5 54-594, looked up)
chain: TGTAELDALWNLVEAQYPVQTAAVTTLVTVPDDYKFEADPPSYALAGYETSEIAGLKFPKGFKFGVAGAAIQVEGAAKAEGRGPSTWDYLCHHYASTQCNNYDPDITTNHYYLYPLDFARLQHLGINTYSFSISWTRIYPLGAGYVNEAGLAHYDAVIHSAKKYGLEPVGTVFHWDTPLSLMLKYGAWQDTGDQIVKDFVTYATTVFKRYGNEVKTWFTFNEPRVFCSQNSGLPYNLTYPEGINSTSAVFRCTYNVLKAHGHAVKVYRDLVASGTIAAGEIGFKSDDNYPIPARPGNADDEESAKRHEAFRIGIFAQPVYGNGDYPDVVKETVGDMLPALTDEDKGYIKGSGDIFAIDGYRTDISHAALNGIANCIRNQSDPNWPVCEEGSDPFAHVYPSGFAIGQSADPLSSWLVNSAPFIRDQLKFLTQTYPAKGGIYFSEFGWAEDAEYDRQLLYQITWDGLRTQYLTDYLSQLLLAVHKDGINLRGALTWSFVDNWEWGLGMQQKFGFQFVNQSDPDLTRTFKLSAHAYAQFGRNHL
notes: ß-hexosyltransferase (BHT, BglA) of Hamamotoa (Sporobolomyces) singularis, 594-residue polypeptide, residues 54-594; Expressed behind the MFα pre-pro leader of pPIC9 (primer encodes KR-EAEA before residue 54; leftover leader residues are a surmise); Glycosylated enzyme; also called GS115::MFα-rBht(54–594)-HIS; JB224; not shown: His6, C-terminal, kept
[2]
  stoichiometry N: 2

B3: rBHT(32–594)-HIS, recombinant ß-hexosyltransferase from Hamamotoa (Sporobolomyces) singularis, residues 32–594 (enzyme, UniProt Q564N5 32-594, looked up)
chain: SLTSNYETPSPTAIPLEPTPTATGTAELDALWNLVEAQYPVQTAAVTTLVTVPDDYKFEADPPSYALAGYETSEIAGLKFPKGFKFGVAGAAIQVEGAAKAEGRGPSTWDYLCHHYASTQCNNYDPDITTNHYYLYPLDFARLQHLGINTYSFSISWTRIYPLGAGYVNEAGLAHYDAVIHSAKKYGLEPVGTVFHWDTPLSLMLKYGAWQDTGDQIVKDFVTYATTVFKRYGNEVKTWFTFNEPRVFCSQNSGLPYNLTYPEGINSTSAVFRCTYNVLKAHGHAVKVYRDLVASGTIAAGEIGFKSDDNYPIPARPGNADDEESAKRHEAFRIGIFAQPVYGNGDYPDVVKETVGDMLPALTDEDKGYIKGSGDIFAIDGYRTDISHAALNGIANCIRNQSDPNWPVCEEGSDPFAHVYPSGFAIGQSADPLSSWLVNSAPFIRDQLKFLTQTYPAKGGIYFSEFGWAEDAEYDRQLLYQITWDGLRTQYLTDYLSQLLLAVHKDGINLRGALTWSFVDNWEWGLGMQQKFGFQFVNQSDPDLTRTFKLSAHAYAQFGRNHL
notes: ß-hexosyltransferase (BHT, BglA) of Hamamotoa (Sporobolomyces) singularis, 594-residue polypeptide, residues 32-594; Expressed behind the MFα pre-pro leader of pPIC9 (primer encodes KR-EAEA before residue 32; leftover leader residues are a surmise); Glycosylated enzyme; also called GS115::MFα-rBht(32–594)-HIS; JB223; not shown: His6, C-terminal, kept
[2]
  stoichiometry N: 2

B4: rBHT(57–594)-HIS, recombinant ß-hexosyltransferase from Hamamotoa (Sporobolomyces) singularis, residues 57–594 (enzyme, UniProt Q564N5 57-594, looked up)
chain: AELDALWNLVEAQYPVQTAAVTTLVTVPDDYKFEADPPSYALAGYETSEIAGLKFPKGFKFGVAGAAIQVEGAAKAEGRGPSTWDYLCHHYASTQCNNYDPDITTNHYYLYPLDFARLQHLGINTYSFSISWTRIYPLGAGYVNEAGLAHYDAVIHSAKKYGLEPVGTVFHWDTPLSLMLKYGAWQDTGDQIVKDFVTYATTVFKRYGNEVKTWFTFNEPRVFCSQNSGLPYNLTYPEGINSTSAVFRCTYNVLKAHGHAVKVYRDLVASGTIAAGEIGFKSDDNYPIPARPGNADDEESAKRHEAFRIGIFAQPVYGNGDYPDVVKETVGDMLPALTDEDKGYIKGSGDIFAIDGYRTDISHAALNGIANCIRNQSDPNWPVCEEGSDPFAHVYPSGFAIGQSADPLSSWLVNSAPFIRDQLKFLTQTYPAKGGIYFSEFGWAEDAEYDRQLLYQITWDGLRTQYLTDYLSQLLLAVHKDGINLRGALTWSFVDNWEWGLGMQQKFGFQFVNQSDPDLTRTFKLSAHAYAQFGRNHL
notes: ß-hexosyltransferase (BHT, BglA) of Hamamotoa (Sporobolomyces) singularis, 594-residue polypeptide, residues 57-594; Expressed behind the MFα pre-pro leader of pPIC9 (primer encodes KR-EAEA before residue 57; leftover leader residues are a surmise); Glycosylated enzyme; also called GS115::MFα-rBht(57–594)-HIS; JB225; not shown: His6, C-terminal, kept
[2]
  stoichiometry N: 2
